Reference: publication PMC6851107, “Characterization of the dynamics and the conformational entropy in the binding between TAZ1 and CTAD-HIF-1α” (Scientific Reports, 2019)

Target: T1, transcriptional adapter zinc binding 1 (TAZ1) domain of CREB binding protein (CBP) (mouse (numbering; the same sequence in …, UniProt P45481 340-439)
T1 construct: Isotope-labelled (15N; or 2H, 13C, 15N; or 10% 13C) or unlabelled, depending on the NMR sample
Assay: NMR relaxation (15N backbone and 2H methyl side chain) of the complex; 1.3 mM labelled TAZ1 with 1.8 mM unlabelled CTAD-HIF-1α, and 1.3 mM labelled CTAD-HIF-1α with 1.8 mM unlabelled TAZ1; 15 mM HEPES pH 6.8, 50 mM NaCl, 3 mM TCEP, 0.01% NaN3, 7% D2O; 303 K
Conditions: both partners purified

T1 sequence (P45481 340-439): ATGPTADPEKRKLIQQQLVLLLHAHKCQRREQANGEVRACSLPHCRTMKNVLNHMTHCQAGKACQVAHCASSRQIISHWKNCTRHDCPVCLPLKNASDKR

- binding result: binds
B1: C-terminal transactivation domain of hypoxia inducible factor subunit 1α (CTAD-HIF-1α) (domain or fragment, UniProt Q16665 776-826, looked up)
chain: SDLACRLLGQSMDESGLPQLTSYDCEVNAPIQGSRNLLQGEELLRALDQVN
notes: Unlabelled or 2H, 13C, 15N-labelled, depending on the NMR sample
